Experimental data published in article PMC3340179.

Molecular target: STAT3-GFP (STAT3-EGFP fusion, unphosphorylated) (UniProt P40763)
Assay: MST

Chain of STAT3-GFP (STAT3-EGFP fusion, unphosphorylated) (P40763 whole entry, the tested form may be a part): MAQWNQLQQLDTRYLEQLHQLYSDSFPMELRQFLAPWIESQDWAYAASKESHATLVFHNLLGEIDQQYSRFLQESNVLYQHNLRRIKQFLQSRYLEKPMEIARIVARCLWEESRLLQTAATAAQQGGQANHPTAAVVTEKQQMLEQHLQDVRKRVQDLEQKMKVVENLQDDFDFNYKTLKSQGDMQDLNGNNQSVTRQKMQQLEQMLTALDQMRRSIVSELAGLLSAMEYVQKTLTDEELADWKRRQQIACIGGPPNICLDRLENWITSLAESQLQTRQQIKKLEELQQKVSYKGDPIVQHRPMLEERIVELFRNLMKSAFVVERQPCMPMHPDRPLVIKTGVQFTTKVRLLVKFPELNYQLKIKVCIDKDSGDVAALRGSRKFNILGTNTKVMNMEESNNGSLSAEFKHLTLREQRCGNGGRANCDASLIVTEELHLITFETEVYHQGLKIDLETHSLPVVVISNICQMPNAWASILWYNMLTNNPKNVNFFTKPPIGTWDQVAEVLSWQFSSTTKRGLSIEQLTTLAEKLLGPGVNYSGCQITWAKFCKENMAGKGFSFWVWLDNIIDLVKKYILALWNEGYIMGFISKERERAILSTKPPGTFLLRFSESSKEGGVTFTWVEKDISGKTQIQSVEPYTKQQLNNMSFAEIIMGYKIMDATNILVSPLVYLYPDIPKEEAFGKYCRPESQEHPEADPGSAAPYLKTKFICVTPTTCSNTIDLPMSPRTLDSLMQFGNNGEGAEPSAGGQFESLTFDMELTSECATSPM

With “AAAACAAAACGAAACAAACAAACTA (double strand) [S+100]” the Kd was 23.3 µM.

In the case of “GTTTCCGGGAAAGCAGTAGGTTTCCGGGAAAG (double strand) [GAS]”, the Kd is reported as 37.9 µM.
